Experimental data reported in IntAct's records for PubMed 28683311.

Tests used:
limd1_human LIMD1 [1] = target: limd1_human LIMD1 (UniProt Q9UGP4)
tnr6a_human TNRC6A = tnr6a_human TNRC6A (UniProt Q8NDV7)
limd1_human LIMD1 [2] = target: limd1_human LIMD1 (UniProt Q9UGP4); remark: listed apart in the source
limd1_human LIMD1 [3] = target: limd1_human LIMD1 (UniProt Q9UGP4); remark: listed apart in the source

Sequence of limd1_human LIMD1 (Q9UGP4 whole entry): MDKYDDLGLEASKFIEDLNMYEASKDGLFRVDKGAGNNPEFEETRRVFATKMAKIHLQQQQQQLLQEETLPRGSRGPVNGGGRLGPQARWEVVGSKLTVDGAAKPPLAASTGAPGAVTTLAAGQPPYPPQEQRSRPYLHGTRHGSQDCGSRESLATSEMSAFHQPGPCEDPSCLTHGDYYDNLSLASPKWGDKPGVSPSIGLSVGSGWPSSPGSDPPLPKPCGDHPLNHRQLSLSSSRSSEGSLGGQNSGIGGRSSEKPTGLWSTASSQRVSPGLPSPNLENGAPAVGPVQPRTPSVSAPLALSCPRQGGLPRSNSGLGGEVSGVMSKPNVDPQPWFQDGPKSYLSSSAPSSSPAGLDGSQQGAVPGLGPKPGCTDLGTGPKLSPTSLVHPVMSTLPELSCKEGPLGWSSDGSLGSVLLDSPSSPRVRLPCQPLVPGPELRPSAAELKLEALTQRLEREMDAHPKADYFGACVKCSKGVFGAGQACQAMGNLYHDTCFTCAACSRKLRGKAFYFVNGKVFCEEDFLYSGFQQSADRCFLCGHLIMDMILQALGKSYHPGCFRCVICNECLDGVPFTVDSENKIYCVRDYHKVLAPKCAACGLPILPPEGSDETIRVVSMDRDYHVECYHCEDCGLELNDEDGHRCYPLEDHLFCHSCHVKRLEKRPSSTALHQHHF
Sequence of tnr6a_human TNRC6A (Q8NDV7 whole entry): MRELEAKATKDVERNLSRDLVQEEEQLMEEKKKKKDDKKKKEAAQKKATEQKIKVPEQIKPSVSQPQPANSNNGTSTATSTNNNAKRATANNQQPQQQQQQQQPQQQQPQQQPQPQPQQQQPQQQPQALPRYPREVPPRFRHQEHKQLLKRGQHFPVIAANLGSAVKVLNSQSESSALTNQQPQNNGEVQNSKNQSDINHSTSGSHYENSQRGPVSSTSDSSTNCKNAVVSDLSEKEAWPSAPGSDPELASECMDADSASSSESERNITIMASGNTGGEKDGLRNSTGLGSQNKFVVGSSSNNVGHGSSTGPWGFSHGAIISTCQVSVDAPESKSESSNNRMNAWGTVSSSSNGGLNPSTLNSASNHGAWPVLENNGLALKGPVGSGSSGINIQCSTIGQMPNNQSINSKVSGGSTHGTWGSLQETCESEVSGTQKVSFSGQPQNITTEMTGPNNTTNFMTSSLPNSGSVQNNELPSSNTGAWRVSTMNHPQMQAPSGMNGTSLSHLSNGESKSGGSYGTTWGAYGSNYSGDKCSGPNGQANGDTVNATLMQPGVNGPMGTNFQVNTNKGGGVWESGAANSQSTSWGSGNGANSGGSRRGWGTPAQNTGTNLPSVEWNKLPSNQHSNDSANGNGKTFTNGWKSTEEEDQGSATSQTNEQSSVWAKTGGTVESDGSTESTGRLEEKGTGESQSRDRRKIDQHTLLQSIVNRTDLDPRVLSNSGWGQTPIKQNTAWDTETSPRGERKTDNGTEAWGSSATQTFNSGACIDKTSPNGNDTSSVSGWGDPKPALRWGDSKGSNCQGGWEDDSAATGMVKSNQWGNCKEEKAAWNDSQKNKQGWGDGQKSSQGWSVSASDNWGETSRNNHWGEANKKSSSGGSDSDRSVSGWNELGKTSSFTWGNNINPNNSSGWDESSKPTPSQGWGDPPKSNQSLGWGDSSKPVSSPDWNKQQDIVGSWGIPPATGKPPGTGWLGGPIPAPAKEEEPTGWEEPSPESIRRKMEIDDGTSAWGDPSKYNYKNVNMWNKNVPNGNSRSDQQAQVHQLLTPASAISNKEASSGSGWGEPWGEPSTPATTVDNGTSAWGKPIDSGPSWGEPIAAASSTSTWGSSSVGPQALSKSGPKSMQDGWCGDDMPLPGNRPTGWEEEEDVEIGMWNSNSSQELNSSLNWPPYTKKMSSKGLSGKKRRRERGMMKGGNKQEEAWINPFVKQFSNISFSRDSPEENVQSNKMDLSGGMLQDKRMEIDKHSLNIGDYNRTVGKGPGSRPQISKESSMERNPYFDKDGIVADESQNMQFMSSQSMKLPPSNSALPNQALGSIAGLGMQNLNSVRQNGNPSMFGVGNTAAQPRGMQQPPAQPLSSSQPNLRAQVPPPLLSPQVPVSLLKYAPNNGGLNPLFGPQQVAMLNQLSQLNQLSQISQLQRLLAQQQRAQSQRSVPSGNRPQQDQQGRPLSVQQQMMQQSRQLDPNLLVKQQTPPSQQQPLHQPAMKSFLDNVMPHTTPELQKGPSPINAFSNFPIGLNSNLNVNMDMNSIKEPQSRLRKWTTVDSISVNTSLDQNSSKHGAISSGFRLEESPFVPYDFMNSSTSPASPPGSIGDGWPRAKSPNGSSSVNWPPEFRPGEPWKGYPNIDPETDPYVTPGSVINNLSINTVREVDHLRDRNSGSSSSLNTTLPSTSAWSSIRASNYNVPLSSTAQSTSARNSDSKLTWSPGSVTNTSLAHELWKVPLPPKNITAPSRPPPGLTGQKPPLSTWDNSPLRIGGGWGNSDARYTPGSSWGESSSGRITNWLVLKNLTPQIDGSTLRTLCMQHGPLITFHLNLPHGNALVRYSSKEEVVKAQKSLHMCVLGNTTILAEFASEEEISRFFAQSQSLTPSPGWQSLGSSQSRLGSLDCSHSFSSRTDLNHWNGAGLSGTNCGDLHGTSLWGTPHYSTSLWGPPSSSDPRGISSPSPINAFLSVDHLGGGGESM

effect of a mutation on the interaction (limd1_human LIMD1 [1]) | effect of a mutation on the interaction (tnr6a_human TNRC6A) | effect of a mutation on the interaction (limd1_human LIMD1 [2]) | effect of a mutation on the interaction (limd1_human LIMD1 [3]) | Substance
with no effect | – | – | – | Protein argonaute-4 (Homo sapiens) (from UniProt Q9HCK5) S377E
decreasing interaction strength | – | – | – | Protein argonaute-4 (Homo sapiens) (from UniProt Q9HCK5) S377A
– | with no effect | decreasing interaction strength | – | Protein argonaute-2 (Homo sapiens), Q9UKV8 S387A
– | – | increasing interaction strength | with no effect | Protein argonaute-2 (Homo sapiens), Q9UKV8 S387E
